Results: patent US20260176254A1, “INHIBITORS OF PROSTATE SPECIFIC MEMBRANE ANTIGEN AND USE THEREOF” (SHANGHAI SINOTAU BIOTECH. CO., LTD, priority 2023, published 2026)

Experiments:
[1] = target: T1, recombinant human PSMA (rhPSMA) (Homo sapiens, UniProt Q04609); assay: Naaladase assay (fluorescence-based Naaladase activity inhibition); assay type: biochemical; settings: rhPSMA 0.4 μg/mL, substrate N-Acetyl-Asp-Glu 40 μM, 37° C. one hour
T1 construct: purchased Sino Biological
Procedure: Naaladase activity inhibition was determined using a fluorescence-based assay. Briefly, the solution containing the substrate N-Acetyl-Asp-Glu (Sigma-Aldrich) at 40 μM and the compound at concentrations from 0.15 nM to 1000 nM was mixed at equal volume with recombinant human PSMA (rhPSMA, Sino Biological) at 0.4 μg/mL, in assay buffer (50 mM HEPES, 100 mM NaCl, pH 7.5). The enzymatic reaction was proceeded by incubation at 37° C. for one hour and then stopped by heating at 95° C. for 5 minutes. A solution of 15 mM ortho-phthaldialdehyde (Sigma-Aldrich) was added to all vials and incubated for 10 min at ambient temperature. The reaction solutions were loaded onto a 96-well flat clear bottom black microplates (Corning) and read at excitation and emission wavelengths of 330 and 450 nm, respectively, using a microplate reader (Tecan). The data were analyzed by a one-site total binding regression algorithm of GraphPad Prism (GraphPad Software).

[2] = Tissue biodistribution in 22Rv1 tumor mouse model; set-up: species or system mice; settings: male, nude, in vivo, iv, total radioactivity
Source text: (§1) LnCAP and 22RV1 CDX xenograft tumor models were generated by inoculating 5×10^6 cells/site subcutaneously in male SCID or nude mice (Vital River), respectively. Animals were housed according to IACUC guidance and had accessed to food and water ad libitium. Animals were used for biodistribution study when the tumor dimensions reached around 0.2-0.3 cm^3. […] At each tome point, animals were sacrificed and tissues were collected, weighted, and subjected to radioactivity measurements using gamma counter. Radioactivity in the tissues was presented in % ID/g (percent of injected dose per gram).

[3] = Tissue biodistribution in LnCAP tumor mouse model; set-up: species or system mice; settings: male, SCID, in vivo, iv, total radioactivity
Source text: as §1

[4] = Tissue biodistribution: Salivary Gland

T1 sequence (Q04609 whole entry): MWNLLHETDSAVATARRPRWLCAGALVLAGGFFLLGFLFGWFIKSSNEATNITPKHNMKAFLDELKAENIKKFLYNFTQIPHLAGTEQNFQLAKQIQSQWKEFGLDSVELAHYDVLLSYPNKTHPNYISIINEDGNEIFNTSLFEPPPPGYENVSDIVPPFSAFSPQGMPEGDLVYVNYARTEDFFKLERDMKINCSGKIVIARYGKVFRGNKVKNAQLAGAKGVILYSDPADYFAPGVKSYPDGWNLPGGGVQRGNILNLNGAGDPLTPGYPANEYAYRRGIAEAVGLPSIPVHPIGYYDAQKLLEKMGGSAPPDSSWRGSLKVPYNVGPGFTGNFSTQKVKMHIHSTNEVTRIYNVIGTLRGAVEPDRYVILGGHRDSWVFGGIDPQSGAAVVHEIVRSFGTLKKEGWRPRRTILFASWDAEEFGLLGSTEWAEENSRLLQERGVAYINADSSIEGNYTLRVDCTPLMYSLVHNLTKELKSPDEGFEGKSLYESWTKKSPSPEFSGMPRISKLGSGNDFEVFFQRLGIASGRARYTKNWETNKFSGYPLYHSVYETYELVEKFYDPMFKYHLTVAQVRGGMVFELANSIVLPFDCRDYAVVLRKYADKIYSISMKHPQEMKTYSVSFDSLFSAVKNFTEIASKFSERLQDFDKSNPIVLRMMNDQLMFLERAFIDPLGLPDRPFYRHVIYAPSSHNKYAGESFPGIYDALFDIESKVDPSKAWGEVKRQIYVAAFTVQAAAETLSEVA

In the case of `O=C(O)CC[C@H](NC(=O)N[C@@H](CCCCNC(=O)[C@H](Cc1ccc2ccccc2c1)Nc1cc(NC23CCC(NC(=O)CN4CCN(CC(=O)O)CCN(CC(=O)O)CCN(CC(=O)O)CC4)(CC2)CC3)ncn1)C(=O)O)C(=O)O` [E24], the IC50 [1] is reported as 8.6 nM.

Compound `O=C(O)CN1CCN(CC(=O)O)CCN(CC(=O)NC23CCC(Nc4c(N[C@@H](Cc5ccc6ccccc6c5)C(=O)NCCCC[C@H](NC(=O)N[C@@H](CNC(=O)C(=O)O)C(=O)O)C(=O)O)c(=O)c4=O)(CC2)CC3)CCN(CC(=O)O)CC1` [E21, (4S,8S,15S)-15-((3,4-dioxo-2-((4-(2-(4,7,10-tris(carboxymethyl)-1,4,7,10-tetraazacyclododecan-1-yl)acetamido)bicyclo[2.2.2]octan-1-yl)amino)cyclobut-1-en-1-yl)amino)-16-(naphthalen-2-yl)-1,6,14-trioxo-2,5,7,13-tetraazahexadecane-1,4,8-tricarboxylic acid] has an IC50 [1] of 1.5 nM.

Work on `O=C(O)CN1CCN(CC(=O)O)CCN(CC(=O)NC23CCC(Nc4nnc(N[C@@H](Cc5c6ccccc6cc6ccccc56)C(=O)NCCCC[C@H](NC(=O)N[C@@H](CNC(=O)C(=O)O)C(=O)O)C(=O)O)s4)(CC2)CC3)CCN(CC(=O)O)CC1` [E26] yielded an IC50 [1] of 9.5 nM.

`O=C(O)CN1CCN(CC(=O)O)CCN(CC(=O)NC23CCC(Nc4cc(N[C@@H](Cc5c6ccccc6cc6ccccc56)C(=O)NCCCC[C@H](NC(=O)N[C@@H](CNC(=O)C(=O)O)C(=O)O)C(=O)O)ncn4)(CC2)CC3)CCN(CC(=O)O)CC1` [E22, (4S,8S,15S)-16-(anthracen-9-yl)-1,6,14-trioxo-15-((6-((4-(2-(4,7,10-tris(carboxymethyl)-1,4,7,10-tetraazacyclododecan-1-yl)acetamido)bicyclo[2.2.2]octan-1-yl)amino)pyrimidin-4-yl)amino)-2,5,7,13-tetraazahexadecane-1,4,8-tricarboxylic acid] gave an IC50 [1] of 4.9 nM.

`O=C(O)CC[C@H](NC(=O)N[C@@H](CCCCNC(=O)[C@H](Cc1ccc2ccccc2c1)NC(=O)[C@H]1CC[C@H](CNC(=O)CN2CCN(CC(=O)O)CCN(CC(=O)O)CCN(CC(=O)O)CC2)CC1)C(=O)O)C(=O)O` [[^177Lu]Lu-PSMA-617, metal not drawn, reference compound] gave a tissue uptake dose at 2 h [2] of 4.15 ± 0.06 %ID, a tissue uptake dose at 24 h [2] of 1.21 ± 0.03 %ID and a tissue uptake at 2 h ([2]; Tissue biodistribution: Blood) of 0.08 ± 0.03 %ID/g. The tissue uptake at 6 h ([2]; Tissue biodistribution: Blood) was 0.03 ± 0.01 %ID/g, the tissue uptake at 24 h ([2]; Tissue biodistribution: Bone) was 0.11 ± 0.03 %ID/g and the tissue uptake at 2 h ([2]; Tissue biodistribution: Heart) was 0.1 ± 0.02 %ID/g. It also gave a tissue uptake at 6 h ([2]; Tissue biodistribution: Heart) of 0.06 ± 0.01 %ID/g, a tissue uptake at 24 h ([2]; Tissue biodistribution: Heart) of 0.05 ± 0.01 %ID/g and a tissue uptake at 72 h ([2]; Tissue biodistribution: Heart) of 0.05 ± 0.01 %ID/g. For the same compound, the tissue uptake at 168 h ([2]; Tissue biodistribution: Heart) was 0.06 ± 0.01 %ID/g, the tissue uptake at 2 h ([2]; Tissue biodistribution: Kidney) was 53 ± 27.4 %ID/g and the tissue uptake at 6 h ([2]; Tissue biodistribution: Kidney) was 12.3 ± 6.38 %ID/g. The tissue uptake at 24 h ([2]; Tissue biodistribution: Kidney) was 1.35 ± 0.48 %ID/g, the tissue uptake at 168 h ([2]; Tissue biodistribution: Kidney) was 0.08 ± 0.03 %ID/g and the tissue uptake at 2 h ([2]; Tissue biodistribution: Liver) was 0.09 ± 0.02 %ID/g. For the same compound, the tissue uptake at 6 h ([2]; Tissue biodistribution: Liver) was 0.08 ± 0.02 %ID/g, the tissue uptake at 24 h ([2]; Tissue biodistribution: Liver) was 0.05 ± 0.01 %ID/g and the tissue uptake at 72 h ([2]; Tissue biodistribution: Liver) was 0.04 ± 0.01 %ID/g. The tissue uptake at 168 h ([2]; Tissue biodistribution: Liver) was 0.03 ± 0.01 %ID/g, the tissue uptake at 2 h ([2]; Tissue biodistribution: Lung) was 0.29 ± 0.05 %ID/g and the tissue uptake at 24 h ([2]; Tissue biodistribution: Lung) was 0.06 ± 0.01 %ID/g. It also gave a tissue uptake at 72 h ([2]; Tissue biodistribution: Lung) of 0.05 ± 0.01 %ID/g, a tissue uptake at 168 h ([2]; Tissue biodistribution: Lung) of 0.05 %ID/g and a tissue uptake at 2 h ([2]; Tissue biodistribution: Muscle) of 0.09 ± 0.03 %ID/g. For the same compound, the tissue uptake at 6 h ([2]; Tissue biodistribution: Muscle) was 0.05 ± 0.02 %ID/g, the tissue uptake at 6 h [2, 4] was 0.1 ± 0.02 %ID/g and the tissue uptake at 24 h [2, 4] was 0.06 ± 0.01 %ID/g. The tissue uptake at 72 h [2, 4] was 0.05 ± 0.02 %ID/g, the tissue uptake at 168 h [2, 4] was 0.05 ± 0.01 %ID/g and the tissue uptake at 2 h ([2]; Tissue biodistribution: Spleen) was 0.78 ± 0.11 %ID/g. For the same compound, the tissue uptake at 72 h ([2]; Tissue biodistribution: Spleen) was 0.11 ± 0.04 %ID/g, the tissue uptake at 168 h ([2]; Tissue biodistribution: Spleen) was 0.09 ± 0.03 %ID/g and the tissue uptake at 2 h ([2]; Tissue biodistribution: Tumor) was 11.4 ± 2.27 %ID/g. For the same compound, the tissue uptake at 6 h ([2]; Tissue biodistribution: Tumor) was 12.6 ± 3.23 %ID/g, the tissue uptake at 24 h ([2]; Tissue biodistribution: Tumor) was 9.84 ± 1.45 %ID/g and the tissue uptake at 72 h ([2]; Tissue biodistribution: Tumor) was 5.57 ± 0.6 %ID/g. The tissue uptake at 168 h ([2]; Tissue biodistribution: Tumor) was 0.96 ± 0.5 %ID/g, the tissue uptake dose at 2 h [3] was 8.53 ± 0.64 %ID and the tissue uptake dose at 6 h [3] was 3.71 ± 1.76 %ID. For the same compound, the tissue uptake dose at 24 h [3] was 4.44 ± 3.53 %ID, the tissue uptake dose at 72 h [3] was 1.03 ± 0.18 %ID and the tissue uptake dose at 168 h [3] was 0.73 ± 0.03 %ID. It also gave a tissue uptake at 2 h ([3]; Tissue biodistribution: Blood) of 0.38 ± 0.05 %ID/g, a tissue uptake at 6 h ([3]; Tissue biodistribution: Blood) of 0.08 ± 0.04 %ID/g and a tissue uptake at 24 h ([3]; Tissue biodistribution: Blood) of 0.03 ± 0.01 %ID/g. It also gave a tissue uptake at 6 h ([3]; Tissue biodistribution: Bone) of 0.2 ± 0.01 %ID/g, a tissue uptake at 2 h ([3]; Tissue biodistribution: Gland) of 0.56 ± 0.04 %ID/g and a tissue uptake at 24 h ([3]; Tissue biodistribution: Gland) of 0.07 %ID/g. It also gave a tissue uptake at 72 h ([3]; Tissue biodistribution: Gland) of 0.06 %ID/g, a tissue uptake at 168 h ([3]; Tissue biodistribution: Gland) of 0.06 ± 0.01 %ID/g and a tissue uptake at 24 h ([3]; Tissue biodistribution: Heart) of 0.06 ± 0.02 %ID/g. For the same compound, the tissue uptake at 72 h ([3]; Tissue biodistribution: Heart) was 0.06 ± 0.01 %ID/g, the tissue uptake at 168 h ([3]; Tissue biodistribution: Heart) was 0.07 %ID/g and the tissue uptake at 2 h ([3]; Tissue biodistribution: Kidney) was 66.9 ± 96.1 %ID/g. The tissue uptake at 6 h ([3]; Tissue biodistribution: Kidney) was 45.6 ± 37.1 %ID/g, the tissue uptake at 24 h ([3]; Tissue biodistribution: Kidney) was 3.25 ± 1.04 %ID/g and the tissue uptake at 72 h ([3]; Tissue biodistribution: Kidney) was 0.96 ± 0.33 %ID/g. For the same compound, the tissue uptake at 2 h ([3]; Tissue biodistribution: Liver) was 0.21 ± 0.03 %ID/g, the tissue uptake at 6 h ([3]; Tissue biodistribution: Liver) was 0.11 ± 0.04 %ID/g and the tissue uptake at 24 h ([3]; Tissue biodistribution: Liver) was 0.07 ± 0.02 %ID/g. It also gave a tissue uptake at 72 h ([3]; Tissue biodistribution: Liver) of 0.06 ± 0.01 %ID/g, a tissue uptake at 168 h ([3]; Tissue biodistribution: Liver) of 0.04 ± 0.01 %ID/g and a tissue uptake at 2 h ([3]; Tissue biodistribution: Lung) of 0.91 ± 0.06 %ID/g. It also gave a tissue uptake at 24 h ([3]; Tissue biodistribution: Lung) of 0.09 ± 0.02 %ID/g, a tissue uptake at 72 h ([3]; Tissue biodistribution: Lung) of 0.05 ± 0.01 %ID/g and a tissue uptake at 168 h ([3]; Tissue biodistribution: Lung) of 0.05 ± 0.01 %ID/g. The tissue uptake at 6 h ([3]; Tissue biodistribution: Muscle) was 0.08 ± 0.02 %ID/g, the tissue uptake at 168 h ([3]; Tissue biodistribution: Muscle) was 0.03 ± 0.02 %ID/g and the tissue uptake at 2 h ([3]; Tissue biodistribution: Spleen) was 0.7 ± 0.21 %ID/g. For the same compound, the tissue uptake at 6 h ([3]; Tissue biodistribution: Spleen) was 0.36 ± 0.04 %ID/g, the tissue uptake at 2 h ([3]; Tissue biodistribution: Tumor) was 30.2 ± 5.26 %ID/g and the tissue uptake at 6 h ([3]; Tissue biodistribution: Tumor) was 27.4 ± 7.91 %ID/g. It also gave a tissue uptake at 24 h ([3]; Tissue biodistribution: Tumor) of 19.8 ± 4.66 %ID/g, a tissue uptake at 72 h ([3]; Tissue biodistribution: Tumor) of 11.9 ± 1.2 %ID/g and a tissue uptake at 168 h ([3]; Tissue biodistribution: Tumor) of 4.74 ± 1.95 %ID/g.

`O=C(O)CC[C@H](NC(=O)N[C@@H](CCCCNC(=O)[C@H](Cc1ccc2ccccc2c1)Nc1c(Nc2ccc3c(c2)CCN(C(=O)CN2CCN(CC(=O)O)CCN(CC(=O)O)CCN(CC(=O)O)CC2)C3)c(=O)c1=O)C(=O)O)C(=O)O` [E5] gave an IC50 [1] of 3 nM.

Work on `O=C(O)CC[C@H](NC(=O)N[C@@H](CCCCNC(=O)C(Cc1ccc2ccccc2c1)Nc1nnc(C23CCC(CNC(=O)CN4CCN(CC(=O)O)CCN(CC(=O)O)CCN(CC(=O)O)CC4)(CC2)CC3)o1)C(=O)O)C(=O)O` (single isomer, unassigned) [E17] yielded an IC50 [1] of 3.5 nM.

With `NC(=O)CN1CCN(CC(=O)O)CCN(Cc2nnc(C34CCC(Nc5c(N[C@@H](Cc6c7ccccc7cc7ccccc67)C(=O)NCCCC[C@H](NC(=O)N[C@@H](CCCC(=O)O)C(=O)O)C(=O)O)c(=O)c5=O)(CC3)CC4)o2)CCN(CC(=O)O)CC1` [E20] the IC50 [1] was 1.8 nM.
